Measurements: patent US20050064507A1, “Determining kinase specificity” (priority 2003, published 2005)

The substances below were run against T1, PKC-delta (Homo sapiens, UniProt Q05655) (assay: In vitro kinase assay: peptide phosphorylation by PKC-delta). Settings: normalized to best substrate.
T1 construct: purchased Calbiochem
Type: biochemical
Summary of the method: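 Biotin-Lys-dansyl-Lys-Pro-Pro-Gly-linked proteomic peptides (12–21-residue core) phosphorylated by PKC-delta in HEPES/Triton/CaCl2/MgCl2 buffer with phosphatidyl serine and PMA, 100 μM [γ-32P]ATP, 30° C., ~10 min, stoichiometry ≤5%; streptavidin-plate capture. Signal normalized as % of best peptide substrate.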
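For PKC delta phosphorylation in this document: peptide concentration 10 nM.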

T1 sequence (Q05655 whole entry): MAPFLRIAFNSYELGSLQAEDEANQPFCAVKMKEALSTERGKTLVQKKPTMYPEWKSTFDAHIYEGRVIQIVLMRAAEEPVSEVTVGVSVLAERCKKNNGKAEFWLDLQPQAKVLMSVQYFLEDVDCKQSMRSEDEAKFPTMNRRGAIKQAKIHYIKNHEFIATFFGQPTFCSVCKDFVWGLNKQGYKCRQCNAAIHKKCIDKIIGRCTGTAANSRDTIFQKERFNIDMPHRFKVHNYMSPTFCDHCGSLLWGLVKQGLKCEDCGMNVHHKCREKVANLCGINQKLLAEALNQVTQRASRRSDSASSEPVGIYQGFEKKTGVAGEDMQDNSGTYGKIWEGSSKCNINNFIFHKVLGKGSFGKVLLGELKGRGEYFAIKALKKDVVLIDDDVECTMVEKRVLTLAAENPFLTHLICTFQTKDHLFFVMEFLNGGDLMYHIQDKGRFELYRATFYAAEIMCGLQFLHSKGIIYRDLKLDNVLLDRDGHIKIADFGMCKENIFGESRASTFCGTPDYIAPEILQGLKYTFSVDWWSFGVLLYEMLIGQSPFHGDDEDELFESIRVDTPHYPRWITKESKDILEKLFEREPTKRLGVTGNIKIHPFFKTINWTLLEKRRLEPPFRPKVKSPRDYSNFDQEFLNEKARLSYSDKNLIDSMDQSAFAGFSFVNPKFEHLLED

Substance	PKC delta phosphorylation
76 (HVRRRRGTFKRSKLRARD) [compound 76]	100%
77 (KKKKRASFKRKSSKKG) [compound 77]	76%
78 (KFARKSTRRSIRLPE) [compound 78]	52%
79 (NRKKKRTSFKRKA) [compound 79]	66%
80 (KKKKKRFSFKKSFKL) [compound 80]	24%
82 (PRLIRRGSKKRPAR) [compound 82]	40%
83 (RKIPKRPGSVHRTPSRQ) [compound 83]	38%
84 (QKKSRLRRRASQLKI) [compound 84]	34%
85 (RFARKGSLRQKNV) [compound 85]	34%
86 (RQRKRKLSFRRRTDKD) [compound 86]	42%
89 (EYLERRASRRRAV) [compound 89]	20%
90 (AQIVKRASLKRGKQ) [compound 90]	32%
92 (DGQKRKKSLRKKLD) [compound 92]	17%
93 (AARKKRISVKKKQEQ) [compound 93]	35%
94 (KLAVGRHSFSRRSGV) [compound 94]	12%
95 (KKKFRTPSFLKKSKK) [compound 95]	25%

Substance	PKC delta phosphorylation
96 (RGFLRSASLGRRASFHLE) [compound 96]	18%
99 (AGWRKKTSFRKPKED) [compound 99]	17%
100 (WKGKRRSKARKKRK) [compound 100]	22%
101 (GAPPRRSSIRNAH) [compound 101]	13%
102 (AGSFKRNSIKKIV) [compound 102]	14%
103 (LLKKRDSFRTPRDSKLE) [compound 103]	12%
104 (EKIKRSSLKKVDSLKK) [compound 104]	10%
105 (ALRRPSLRREADD) [compound 105]	9%
106 (EILSRRPSYRKILND) [compound 106]	9%
107 (QKRHARVTVKYDRRE) [compound 107]	10%
108 (KATTKKRTLRKNDRK) [compound 108]	6%
109 (KEVVRTDSLKGRRGR) [compound 109]	7%
110 (EGGDRRASGRRK) [compound 110]	5%
111 (KKKRFSFKKSFKLSGFSFKK) [compound 111]	16%
112 (KRPGKKGSNKRPGKR) [compound 112]	8%
113 (GENVLKKSMKSRVKG) [compound 113]	4%

Same assay, conditions: peptide concentration 1 uM

Substance	phosphorylation by PKC-delta
114 (KKKKRASFKRKSSKKG) [compound 114]	80
115 (NRKKKRTSFKRKA) [compound 115]	94
116 (EEGTFRSSIRRLSTRRR) [compound 116]	75
117 (NRKKKRTSFKRKA) [compound 117]	100
118 (RPQNTLKASKKKKRASFKRK) [compound 118]	73
119 (KKRFSFKKSFKLSGFSFKKN) [compound 119]	42
120 (AKRRRLSSLRASTSK) [compound 120]	64
121 (LRRRSLRRSNSISKSPGP) [compound 121]	80
122 (RAITSTLASSFKRRR) [compound 122]	55

Same assay, conditions: peptide concentration 10 uM

Substance	phosphorylation by PKC-delta
114 (KKKKRASFKRKSSKKG) [compound 114]	100
115 (NRKKKRTSFKRKA) [compound 115]	99
116 (EEGTFRSSIRRLSTRRR) [compound 116]	41
117 (NRKKKRTSFKRKA) [compound 117]	79
118 (RPQNTLKASKKKKRASFKRK) [compound 118]	60
119 (KKRFSFKKSFKLSGFSFKKN) [compound 119]	16
120 (AKRRRLSSLRASTSK) [compound 120]	32
121 (LRRRSLRRSNSISKSPGP) [compound 121]	53
122 (RAITSTLASSFKRRR) [compound 122]	24

What follows are substances tested against T2, PKC-theta (Homo sapiens, UniProt Q04759) (assay: In vitro kinase assay: peptide phosphorylation by PKC-theta). Settings: Table 8.
T2 construct: His-tag; made in house; host or cells: baculovirus-infected Sf9 cells
Type: biochemical
From the text: A second strategy for validation of the PSSM derived from the methods described herein is to identify sequences represented in the human proteome that have low percentiles derived from the PSSM, to synthesize peptides that have those sequences, and test the efficiency of phosphorylation of those peptides by the kinase of interest. […] The results are shown for individual peptides (FIG. 11, panel A) or for groups of peptides aggregated by percentile prediction (FIG. 11, panel B). As with the testing described above with prospectively chosen peptides, the percentile scores are highly predictive of phosphorylation by the relevant kinase.
An example of the purification procedure used for production of active kinase is as follows. A preparation of PKC-theta was prepared using a Gateway expression construct containing PKC-theta that was expressed in baculovirus, which were used to infect Sf9 cells. The cell pellet from a liter of baculovirus-infected Sf9 cells was resuspended in 20 volumes (60 ml) of extraction buffer (20 mM Na phosphate buffer pH 7.5, 500 mM NaCl, 5 mM pyrophosphate, 10% glycerol, 10 mM imidazole, 1 mM PMSF), sonicated twice for one minute (1 cm tip at 60% power and 50% duty cycle) and cell disruption was verified microscopically. The sample was adjusted to five mM MgCl2 and treated with one U benzonase/ml for an additional 20 minute on ice. The sample was clarified by centrifugation in a JA-20 rotor at 15K for 30 min at 4° C., filtered through a […] filter and applied at 0.5 ml/min to a one ml chelating sepharose column previously charged with nickel and equilibrated with extraction buffer. The column was washed with extraction buffer at one ml/min to baseline and eluted in a 20 ml gradient (20-500 mM imidazole in extraction buffer) into one ml fractions that were analyzed by SDS-PAGE. Fractions with the highest concentration of protein were pooled, were dialyzed twice against one liter of 20 mM Na PO4 pH 7.5, 50 mM NaCl buffer. The kinase pool was dialyzed twice against 20 mM HEPES pH 7.4, 100 mM NaCl, 2 mM EDTA, 5 mM DTT, 0.05% Triton-X-100. After dialysis, the sample was adjusted to 50% glycerol and quick-frozen in a dry ice/ethanol bath.
The conditions of the kinase assay and the amount of active kinase used varied with the kinase and with the accuracy needed. For a typical experiment, 5-20 ng of kinase was used per well and each peptide pool was assayed in duplicate wells. Note that the absolute amount of kinase used was not usually a critical parameter, because the desired information related to specificity of the kinase not its absolute activity, and robustness of the assay depends on comparisons of the same amount of kinase on different peptides. The combination of kinase concentration and assay duration was modified to assure that the stoichiometry of peptide phosphorylation never exceeded 5%. The choice of kinase buffer depended on the kinase being analyzed. For studies of PKC, 100 mM HEPES, 0.05% Triton-X100, 1 mM CaCl2, 20 mM MgCl2, 0.2 mg/ml phosphatidyl serine (Avanti Polar Lipids), PMA 100 ng/ml was typically used. The lipid stock was prepared by transferring 3 mg phosphatidyl serine into iced mixture of 450 μl water plus 50 μl of 10% Triton-X100, sonicating 10 times on ice for 1 sec each.
The kinase reaction mixture was assembled by sequential addition to a tube held on ice of: 5 μl peptide (100 μM for final concentration of 10 μM), 15 μl of kinase (typically 5 ng/well, in appropriate kinase buffer), 30 μl of ATP (1 uCi/well of ^32P-gamma ATP in a stock of 167 μM cold ATP in the kinase buffer; for final concentration for 100 μM ATP). The mixture was rapidly warmed to desired reaction temperature (30° C. for PKC) and incubated for the desired duration (usually 10 minutes). The kinase assay was terminated by transfer to 4° C. water batch, and rapid addition of an equal volume (50 μl) of stop solution [0.1M ATP+0.1M EDTA in water, pH 8]. […]

T2 sequence (Q04759 whole entry): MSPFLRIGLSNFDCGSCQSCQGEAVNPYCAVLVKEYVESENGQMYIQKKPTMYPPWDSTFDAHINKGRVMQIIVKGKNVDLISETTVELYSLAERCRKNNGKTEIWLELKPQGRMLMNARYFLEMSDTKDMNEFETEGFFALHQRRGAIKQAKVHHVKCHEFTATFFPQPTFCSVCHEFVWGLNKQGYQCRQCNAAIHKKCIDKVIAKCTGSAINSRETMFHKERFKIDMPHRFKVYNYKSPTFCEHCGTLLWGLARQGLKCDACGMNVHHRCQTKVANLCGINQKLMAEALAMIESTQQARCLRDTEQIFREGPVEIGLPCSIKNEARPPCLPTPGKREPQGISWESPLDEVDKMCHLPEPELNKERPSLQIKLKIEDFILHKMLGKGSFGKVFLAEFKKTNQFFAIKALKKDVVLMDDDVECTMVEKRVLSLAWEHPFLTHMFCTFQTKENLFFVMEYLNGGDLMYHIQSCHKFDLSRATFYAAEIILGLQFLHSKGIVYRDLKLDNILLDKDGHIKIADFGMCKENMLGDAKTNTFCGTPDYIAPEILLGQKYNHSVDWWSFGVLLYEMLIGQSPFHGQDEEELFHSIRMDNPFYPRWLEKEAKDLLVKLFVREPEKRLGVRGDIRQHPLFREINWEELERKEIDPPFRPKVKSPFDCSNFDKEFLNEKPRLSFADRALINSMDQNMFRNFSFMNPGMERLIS

Substance	Peptide phosphorylation by PKC-theta
76 (HVRRRRGTFKRSKLRARD) [compound 76]	99
121 (LRRRSLRRSNSISKSPGP) [compound 121]	57

Same assay, conditions: normalized to best substrate

Substance	PKC theta phosphorylation
76 (HVRRRRGTFKRSKLRARD) [compound 76]	100%
77 (KKKKRASFKRKSSKKG) [compound 77]	74%
78 (KFARKSTRRSIRLPE) [compound 78]	47%
79 (NRKKKRTSFKRKA) [compound 79]	33%
80 (KKKKKRFSFKKSFKL) [compound 80]	63%
82 (PRLIRRGSKKRPAR) [compound 82]	49%
83 (RKIPKRPGSVHRTPSRQ) [compound 83]	92%
84 (QKKSRLRRRASQLKI) [compound 84]	87%
85 (RFARKGSLRQKNV) [compound 85]	46%
86 (RQRKRKLSFRRRTDKD) [compound 86]	38%
89 (EYLERRASRRRAV) [compound 89]	60%
90 (AQIVKRASLKRGKQ) [compound 90]	38%
92 (DGQKRKKSLRKKLD) [compound 92]	47%
93 (AARKKRISVKKKQEQ) [compound 93]	40%
94 (KLAVGRHSFSRRSGV) [compound 94]	86%
95 (KKKFRTPSFLKKSKK) [compound 95]	42%

Substance	PKC theta phosphorylation
96 (RGFLRSASLGRRASFHLE) [compound 96]	21%
99 (AGWRKKTSFRKPKED) [compound 99]	25%
100 (WKGKRRSKARKKRK) [compound 100]	56%
101 (GAPPRRSSIRNAH) [compound 101]	29%
102 (AGSFKRNSIKKIV) [compound 102]	28%
103 (LLKKRDSFRTPRDSKLE) [compound 103]	24%
104 (EKIKRSSLKKVDSLKK) [compound 104]	25%
105 (ALRRPSLRREADD) [compound 105]	21%
106 (EILSRRPSYRKILND) [compound 106]	19%
107 (QKRHARVTVKYDRRE) [compound 107]	40%
108 (KATTKKRTLRKNDRK) [compound 108]	32%
109 (KEVVRTDSLKGRRGR) [compound 109]	9%
110 (EGGDRRASGRRK) [compound 110]	22%
111 (KKKRFSFKKSFKLSGFSFKK) [compound 111]	18%
112 (KRPGKKGSNKRPGKR) [compound 112]	17%
113 (GENVLKKSMKSRVKG) [compound 113]	10%

Same assay, conditions: peptide concentration 1 uM

Substance	phosphorylation by PKC theta
114 (KKKKRASFKRKSSKKG) [compound 114]	100
115 (NRKKKRTSFKRKA) [compound 115]	89
116 (EEGTFRSSIRRLSTRRR) [compound 116]	83
117 (NRKKKRTSFKRKA) [compound 117]	84
118 (RPQNTLKASKKKKRASFKRK) [compound 118]	67
119 (KKRFSFKKSFKLSGFSFKKN) [compound 119]	69
120 (AKRRRLSSLRASTSK) [compound 120]	51
121 (LRRRSLRRSNSISKSPGP) [compound 121]	51
122 (RAITSTLASSFKRRR) [compound 122]	66

Same assay, conditions: peptide concentration 10 uM

Substance	phosphorylation by PKC theta
114 (KKKKRASFKRKSSKKG) [compound 114]	86
115 (NRKKKRTSFKRKA) [compound 115]	77
116 (EEGTFRSSIRRLSTRRR) [compound 116]	78
117 (NRKKKRTSFKRKA) [compound 117]	78
118 (RPQNTLKASKKKKRASFKRK) [compound 118]	52
119 (KKRFSFKKSFKLSGFSFKKN) [compound 119]	28
120 (AKRRRLSSLRASTSK) [compound 120]	51
121 (LRRRSLRRSNSISKSPGP) [compound 121]	57
122 (RAITSTLASSFKRRR) [compound 122]	42
